According to publication PMC3034312:

Substrate: CC(C)=CCC/C(C)=C/CC/C(C)=C/CO[P@@](=O)(O)OP(=O)(O)O
Experiment: steady-state kinetics, 30-min radiolabel incubations
Assay type: biochemical, Streptomyces clavuligerus
Settings: labelled compound ([1-3H]-FPP, 0.25 to 7.5 μM)

B1: SSCG_02150; (−)-δ-cadinene synthase (Streptomyces clavuligerus) (protein)
chain: MSTRPVEGSAIWDVLSPHSPHAAAADGKTLVWVEAGELCGHDTAESANLARIRPGLLAAFCHPKATEDDLTLITKWMAWLFLLDDRIDESDLGRDADLLDGHLQDLQGVALGIRTASGPMSRALEEIITQASAGMGDAWQLRFRRNISDYLLACVWQAAHRQAGEFPDPEVFPHWRRAFGAIMPSFDLIERTDGGALPSCVYYSRPYQSLLTAAADLVCWTNDLMTVDKEAAHGDLHNLVLVTEHDRHQDRRTASAAVSAACEQRMRAHTSARRDLTGLTAALGLPDTVRTHADDCAASLLVWVRGHLEWGLETPRYRPGTTGTGTD
- Km: 1.4 ± 0.1 µM
- kcat: 1.14 ± 0.03 × 10^−3 s^−1

B2: SSCG_03688; (+)-T-muurolol synthase (Streptomyces clavuligerus) (protein)
chain: MSLNHSDLMFYCPVDDLPHPAASGVNDRTLDWASGQGIPTADRDAGRLRAMAPGLLAARIAPDARGPVLDAFADHHTWLFAFDDEYCDRADGSGITEWASFLARLHRVVETGESALLPGNPYGLALRDIACRLSTYTTPAQLAEWLEALRSYFAALVWERSRRRDDDRLQSLDDYLLLRLRNGAMHTSITLLDTVNGYVLPRELRETPGVRALVEMTALLVSVDNDILSHHKESTSGTREANLLDVLGRTGHTTPGEAVAQAVALRNEIMRQFVRVAERVRTPAAVPELYRFTTGLARWIRANLDFSLTTTRYTGPVTERAALSPHEVPPLSGQGPAPARSDVIGWWWRIPEPLPEPGSDGADTPVRKRRAGDRPPTAGRGGAPHHQRTGPPPPVLPGGITASRSSGLQQSTWRREHR
- Km: 2.7 ± 0.3 µM
- kcat: 1.63 ± 0.09 × 10^−3 s^−1
